experiment: soluble on expression in E. coli; label from the status in PepcDB or PDB records

Sequence | soluble on expression in E. coli
MVFMQKRIIYGIDIARGSPRARELPRYALAILRDGEISHFSMLRRQKIFNMIQRDRPEIIAVDNIFELAADRNELLSLMERLPDGVKLVQVTGGLHPEPLVRIARKHGISLDPENPNDEAEACARLADLGVGHEVSLFEDITKIKVSRARSLGRGGWSQNRYRRKVHGAVLQRSREIENILKDLSREKGIRFEAVNVKGFGGYVRSEFTVYAKRGEVPVHSMASNDAQVSVRSVERDKIRYVPLKPRSQKRKFTIVGLDPGTTVGIAILSLDGDLLYLKSFRGIAPDEVVKIIAEYGKPAVIASDVTPMPGSVEKIRRSFNAVPASPGIEVSAEEKIALGKTFGYSNDHERDALTAALLTYRSYKNIFTRIEKKAPENSDLELIKLHVIRGESIESAIEKVRAASQAREKPAGARAAPEKPEEKAVDESFQRMRETVQRQGEQIQNLQEYVEELKQAMAAKDRKISKLESRLKGFKKEAYSEIRKSKEVQIRDSTIESLKKELSNKNKTVKELRRRSNKLRKIQKMEIRGEGTPVKVIAAFTKESIAETKEKYGLKAGDVVFLEKPSGGGAATAQILVEARVRAVIIPEDISHAAEETFFKGDVPVLRDIQLERADDFAMALEHHHHHH | not soluble
MSLDAVKMVKGKVAEIMQNDRLGGLDVLEAEFSKTWEFKNHNVAVYSIQGRRDHMEDRFEVLTDLANKTHPSIFGIFDGHGGETAAEYVKSRLPEALKQHLQDYEKDKENSVLSYQTILEQQILSIDREMLEKLTVSYDEAGTTCLIALLSDKDLTVANVGDSRGVLCDKDGNAIPLSHDHKPYQLKERKRIKRAGGFISFNGSWRVQGILAMSRSLGDYPLKNLNVVIPDPDILTFDLDKLQPEFMILASDGLWDAFSNEEAVRFIKERLDEPHFGAKSIVLQSFYRGCPDNITVMVVKFRNSSKTEEQEGHHHHHH | soluble
MPFAIGQRWLSESENALGLGVITALDQRTVTIYFPAADETRIYAMAQAPLSRIVFSKGETLSHQAGWQGEILDVQNMNGLLFYLVKNPQDEDVIVQERDISPIISFSQAKDRLFSAQIDRSTHFALRY | not soluble
GPGSMDQDLSVCEQEYRKLLDPEEPLFSRTRELYRLKESILRTPAGVHVLAKAVDTTNSVLLQHELVYNLGQSAMVEACPHLERFIRAVGKYDIVTRHEAVEALGAIGDPACIPLLRHFMEPANEPEAAIRESCELALKRIEMLEEKGKEAVGPAANCPFVSIDPAPAFNGTNTGGSAPYTVSELENLLCDTTGAVSLWLRYQAMFTLRNIGTPEAVAALSRALRQDNTSALLRHEVAFVLGQLEHPASQPALLDALRDEHEAPMVRHEAAEALGAIADPKTLPALEEYAKHKEAIVRDSCVVALEMHKYWSQFNNQRIQH | soluble
MSLAIRQHVGALFTDLYEVTMAQAYWAERMSGTAVFEIFFRKLPPGRSYIMAAGLADVVEFLEAFRFDEQDLRYLRGLGQFSDEFLRWLAGVRFTGDVWAAPEGTVIFPNEPAVQLIAPIIEAQLVETFVLNQIHLQSVLASKAARVVAAARGRPVVDFGARRAHGTDAACKVARTSYLAGAAGTSNLLAARQYGIPTFGTMAHSFVQAFDSEVAAFEAFARLYPATMLLVDTYDTLRGVDHVIELAKRLGNRFDVRAVRLDSGDLDELSKATRARLDTAGLEQVEIFASSGLDENRIAALLAARCPIDGFGVGTQLVVAQDAPALDMAYKLVAYDGSGRTKFSSGKVIYPGRKQVFRKLEHGVFCGDTLGEHGENLPGDPLLVPIMTNGRRIRQHAPTLDGARDWARQQIDALPPELRSLEDTGYSYPVAVSDRIVGELARLRHADTAEAHPGSNVVGAKAKRPEGHHHHHH | not soluble
MDREALQHRVLITVSRSSLFRVVEGILEEGKVSSMASSITEYLLNNRYSRERALEHISVYLESELEKSGIDLDDGVDGISLAILFVYEELLENKSEFFSKIQEKSGHALHPPSSDSEE | not soluble
CSSPQHASTVPGTTPSIWTGSPAPSGLSGHDEESPGAQSLTSTLTAPDGTKVATAKFEFANGYATVTIATTGVGKLTPGFHGLHIHQVGKCEPNSVAPTGGAPGNFLSAGGHYHVPGHTGTPASGDLASLQVRGDGSAMLVTTTDAFTMDDLLSGAKTAIIIHAGADNFANIPPERYVQVNGTPGPDETTLTTGDAGKRVACGVIGSG | soluble
GPGSMNFVPLYRSILKGIHTAKQHPYHLQDIRFILSYPLVKPVYYATKPNSELKQLEPLQGIDTPLLVRTCLEDLRRAFMSVPSKDMSVAQQFVYMRELGWLKCRLENIASESTDAILKEARVVASEVTDDDFLDDQIIVRQGRPNNKELQCVQTGNNGSEMGDCGYGVASAGAIGLRYEMFILQNVAPLPLVKEFLSSFSQNTEAAAAAATSNQKLQEFARRYVPRTVVCQNEDLTLTITVNAFDAALTRKSTEENNPFARVHRYFMIRFDLSPSDPLVLGVDVVNSYFLRLDAGSAELVEDIGYLHAADVWKLSQELRVKGSGSSTDSDDTKDNGCVDGSVSSKEHAAEGNVNCMDHNEHEHNPTSHFELSFINPSDGPTIMKGQLYYTLRTKSSASASKMNVGVISFGHILLFNDE | not soluble
LRASEIMNRTLDLQIIMDDLLNLLLKEFKLDLAVIRLVDEKGVLRVRSYSGKGIAGIAGKDWEPEIETYIGEAFLSNRLQFVNDTQYMTKPLTRELMQKEGIKSFAHIPISRKGEPPFGILSVFSRTIVGLFNEPFLNLLESLAGQLAQAVKIVTEMEAKEREREEKERILLENA | soluble
MGHHHHHHSHMDVVKEIMAAIKQYETIIIHRHQRPDPDAIGSQVGLAELLRASFPEKNIYQVGGPVEGLEFLAEMDVITDDVYRGALVIVTDTANAPRISDARFSLGDQLIKIDHHPNDEPYGDLVWVNTNASSCSEIIVDFWQQHLAELTMTDNAARLLYAGIVGDTGRFLYPSTSAHTLAVAAQLRTFNFNAADLNRELDQMPLKVAKLAGYIYQNLEIDANGAARVVLPQSILNSYDIVDSETAAIVSMPGKIEDVLSWAIFVEQPEGYYRVRLRSKGPIINTIAKKHHGGGHPLASGANARDAAEIEVIYQEIQAACQEWAQK | soluble
YKTPLLKALSAVGKAAVDVCRYFNPEVKKVVAYLGWEQEYFLVDEGLYAARPDLLLTGRTLMGHEASKNQQLEDHYFGAIPTRVAAFMKDLEIQALELGIPVKTRHNEVAPNQFELAPIFEECNLAVDHNMLLMSLMRKVARSHGFRLLLHEKPFKGVNGSGKHNNWSLGTDTGVLLMAPGKTAEDNLRFITFIVNTLMAVYHHNGLLKASIMSATNAHRLGANEAPPAIISSFLGKQLTQVLDHIEESGNDDLVSLAGKQGMKLDIPQIPELLIDNTDRNRTSPFAFTGNRFEFRAVGSEANCASAMIALNAAVAEQLARFKQDVDALIEKGEPKISAIIEIIRRYIKECKPVRFDGNGYSDEWKAEAAHRGLDCETSCPLIFDNYLKPASIAMFESTGVMTRKELEARNEVKWETYTKKIQIEARVLGDLAMNH | not soluble
MALKDLFSGFFVVEEEDDELEAPPEENEQQERQQPKQQAQSQNQFTEQPRNVNSERPRSIQSVPKKQSTRLQQSSGERKYQMNNTTSKNNARNVVNMNNQEQENYDFTQESSKMCLFEPRVFSDTQDIADELKNRRATLVNLQRIDKVSAKRIIDFLSGTVYAIGGDIQRVGSDIFLCTPDNVEVAGSITDQIENMEYQGELEHHHHHH | not soluble
MIFKQNQNYWAVFDANKETLIVQTCSGLGLTAIDHLYPPHILPLDTDNETLGTTVLQALANSRTFVYDSPEDQDFFDTEKIRQRYEDWVAKLCGNLGYKTRRALFKNMMSVDIWLHNGCLKISPSRHVKLEAWNAIDADDVILSLDNSPEEIGAGLKLALSHCR | not soluble
MSLTDLSRPTLPGALPDKRQVAASFSRAAASYDSVAALQRAVGLSLLEQLPAGLQPSHWLDLGSGTGHFSRMLAERFAQAGGVAVDIAEGMLLHARHVKGGAQYHVVGDAERLPLRDASVDLVFSSLAVQWCDQFASVLAEAQRVLRPGGVLAFSSLCVGTLDELRASWQAVDGLVHVNRFRRFEDYQRLCAASGFEQLELERCPHVLHYPDVRSLTHELKALGAHNLNPGRPSGLTGRARMQGLLQAYEAFRQPAGLPATYQVVYGVLRKPLAEGHHHHHH | not soluble
MAKEIYSKYPMVKYLRKEALPTALCPGCGGGTVLNAFANAIDQLKIDPRDLVVVSGIGCSAWIASPYFLADTLHTTHGRAIAFATGVKVGLPDKYVVVISGDGDLASIGGNHLIHAARRNIDITVILVNNFIYGMTGGQVAPTTPFGAITTTTPYRNIEHPLNIAETVAAAGASYVARWTTAHVYQLIESIKKAITTKGFSLVEVISQCPVQFGRRNKMKQPAEMLRWFLKNSVPISKAKNMSEEELEGKFIVGEFVNRRKPEFVGELNKLIREVQSKFKEE | not soluble

From the DeepSol protein solubility set
